According to publication PMC7793103:

System: HIV-1 reverse transcriptase (HXB2-RT) (HIV-1 (HXB2))
Assay: MST
Details: MST: 50 nM RNA complex titrated with RT; binding buffer, pH and temperature not stated; annealing buffer 10 mM Tris-HCl pH 7.5, 10 mM NaCl, 1 mM MgCl2, 140 mM …

## MAL 5'UTR:tRNALys3
  Kd: 1.36 µM
